Numbering of substitutions follows the chain as printed.
B1: anti-variant (human) Fc-region antibody M1.3.17 (antibody, V domains shown)
VH: EVKLLESGGGLVQPGGSLKLSCAASGIDFRRYWMNWVRQAPGKGLEWIGEIDPDSSTINYTPSLKDKFIISRDNAKNTMYLQMRKVRSEDTALYYCARPYDYGAWFAYWGQGTLVTVSA
VL: QAVVTQESALTTSPGETVTLTCRSTTGAVTTSNYANWVQEKPDHLFTGLIGGTNKRAPGVPARFSGSLIGDKAALTITGAQTEDEAIYFCALWYSDHWVFGGGTKLTVL
B2: anti-variant (human) Fc-region antibody M1.7.24 (antibody, V domains shown)
VH: B1 VH with I27F, R30S, D52T, M79L, R84I, A97V, Y108S
VL: B1 VL with T25S, D96N

What was measured:
[1] = target: anti-VEGF/ANG2 antibody (IgG1 subclass with mutations P329G/L234A/L235A/I253A/H310A/H435A) [IgG part: P01857]; assay: sandwich ELISA in serum; capture M1.3.17, tracer M1.7.24; anti-VEGF/ANG2 antibody 2500 ng/mL
[2] = target: anti-VEGF/ANG2 antibody (IgG1 subclass with mutations P329G/L234A/L235A/I253A/H310A/H435A) [IgG part: P01857]; assay: sandwich ELISA in serum; capture M1.3.17, tracer M1.7.24; anti-VEGF/ANG2 antibody 78.125 ng/mL
[3] = target: anti-VEGF/ANG2 antibody (IgG1 subclass with mutations P329G/L234A/L235A/I253A/H310A/H435A) [IgG part: P01857]; assay: sandwich ELISA in serum; capture M1.3.17, tracer M1.7.24; anti-VEGF/ANG2 antibody 0 ng/mL (blank)
[4] = target: anti-VEGF/ANG2 antibody (IgG1 subclass with mutations P329G/L234A/L235A/I253A/H310A/H435A) [IgG part: P01857]; assay: bridging ELISA; biotinylated and digoxigenylated anti-VEGF/ANG2 antibody bridged by M1.3.17 at 125 ng/mL
[5] = target: anti-VEGF/ANG2 antibody (IgG1 subclass with mutations P329G/L234A/L235A/I253A/H310A/H435A) [IgG part: P01857]; assay: bridging ELISA; biotinylated and digoxigenylated anti-VEGF/ANG2 antibody bridged by M1.3.17 at 250 ng/mL
[6] = target: anti-VEGF/ANG2 antibody (IgG1 subclass with mutations P329G/L234A/L235A/I253A/H310A/H435A) [IgG part: P01857]; assay: bridging ELISA; biotinylated and digoxigenylated anti-VEGF/ANG2 antibody bridged by M1.3.17 at 31.25 ng/mL
[7] = target: anti-VEGF/ANG2 antibody (IgG1 subclass with mutations P329G/L234A/L235A/I253A/H310A/H435A) [IgG part: P01857]; assay: bridging ELISA; biotinylated and digoxigenylated anti-VEGF/ANG2 antibody bridged by M1.3.17 at 15.625 ng/mL
[8] = target: anti-VEGF/ANG2 antibody (IgG1 subclass with mutations P329G/L234A/L235A/I253A/H310A/H435A) (human) [IgG part: P01857]; assay: sandwich ELISA in serum; M1.3.17-Bi capture on SA plate; tracer anti-human kappa M1.7.10-Dig; analyte 5 ng/mL
[9] = target: anti-VEGF/ANG2 antibody (IgG1 subclass with mutations P329G/L234A/L235A/I253A/H310A/H435A) (human) [IgG part: P01857]; assay: sandwich ELISA in serum; M1.3.17-Bi capture on SA plate; tracer anti-human kappa M1.7.10-Dig; analyte 10 ng/mL
[10] = target: anti-VEGF/ANG2 antibody (IgG1 subclass with mutations P329G/L234A/L235A/I253A/H310A/H435A) (human) [IgG part: P01857]; assay: sandwich ELISA in serum; M1.3.17-Bi capture on SA plate; tracer anti-human kappa M1.7.10-Dig; analyte 2.5 ng/mL
[11] = target: anti-VEGF/ANG2 antibody (IgG1 subclass with mutations P329G/L234A/L235A/I253A/H310A/H435A) (human) [IgG part: P01857]; assay: sandwich ELISA in serum; M1.3.17-Bi capture on SA plate; tracer anti-human kappa M1.7.10-Dig; analyte 1.25 ng/mL
[12] = target: anti-VEGF/ANG2 antibody (IgG1 subclass with mutations P329G/L234A/L235A/I253A/H310A/H435A) (human) [IgG part: P01857]; assay: sandwich ELISA in serum; M1.3.17-Bi capture on SA plate; tracer anti-human kappa M1.7.10-Dig; analyte 0.625 ng/mL
[13] = target: anti-VEGF/ANG2 antibody (IgG1 subclass with mutations P329G/L234A/L235A/I253A/H310A/H435A) (human) [IgG part: P01857]; assay: sandwich ELISA in serum; M1.3.17-Bi capture on SA plate; tracer anti-human kappa M1.7.10-Dig; analyte 0.15625 ng/mL
[14] = target: anti-VEGF/ANG2 antibody (IgG1 subclass with mutations P329G/L234A/L235A/I253A/H310A/H435A) (human) [IgG part: P01857]; assay: sandwich ELISA in serum; M1.3.17-Bi capture on SA plate; tracer anti-human kappa M1.7.10-Dig; analyte 0 ng/mL (blank)
[15] = target: cytokine (IL-2) antibody conjugate with the mutations P329G, L234A, L235A, I253A, H310A, and H435A; assay: sandwich ELISA in serum; capture anti-IL2 antibody, tracer M1.7.24; conjugate 156.25 ng/mL
[16] = target: anti-VEGF/ANG2 antibody (IgG1 subclass with mutations P329G/L234A/L235A/I253A/H310A/H435A) [IgG part: P01857]; assay: sandwich ELISA in serum; capture M1.7.10-Bi, tracer M1.7.24-Dig; anti-VEGF/ANG2 antibody 5 ng/mL
[17] = target: anti-VEGF/ANG2 antibody (IgG1 subclass with mutations P329G/L234A/L235A/I253A/H310A/H435A) [IgG part: P01857]; assay: sandwich ELISA in serum; capture M1.7.10-Bi, tracer M1.7.24-Dig; anti-VEGF/ANG2 antibody 2.5 ng/mL
[18] = target: anti-VEGF/ANG2 antibody (IgG1 subclass with mutations P329G/L234A/L235A/I253A/H310A/H435A) [IgG part: P01857]; assay: sandwich ELISA in serum; capture M1.7.10-Bi, tracer M1.7.24-Dig; anti-VEGF/ANG2 antibody 1.25 ng/mL
[19] = target: anti-VEGF/ANG2 antibody (IgG1 subclass with mutations P329G/L234A/L235A/I253A/H310A/H435A) [IgG part: P01857]; assay: sandwich ELISA in serum; capture M1.7.10-Bi, tracer M1.7.24-Dig; anti-VEGF/ANG2 antibody 0.078125 ng/mL
[20] = target: anti-VEGF/ANG2 antibody (IgG1 subclass with mutations P329G/L234A/L235A/I253A/H310A/H435A) [IgG part: P01857]; assay: sandwich ELISA in serum; capture M1.7.10-Bi, tracer M1.7.24-Dig; anti-VEGF/ANG2 antibody 0.0390625 ng/mL

Row | Binder | signal [OD405 nm] [1] [OD405 nm] | signal [OD405 nm] [2] [OD405 nm] | signal [OD405 nm] [3] [OD405 nm] | signal [OD405 nm] [4] [OD405 nm] | signal [OD405 nm] [5] [OD405 nm] | signal [OD405 nm] [6] [OD405 nm] | signal [OD405 nm] [7] [OD405 nm] | signal [OD405 nm] [8] [OD405 nm] | signal [OD405 nm] [9] [OD405 nm] | signal [OD405 nm] [10] [OD405 nm] | signal [OD405 nm] [11] [OD405 nm] | signal [OD405 nm] [12] [OD405 nm] | signal [OD405 nm] [13] [OD405 nm] | signal [OD405 nm] [14] [OD405 nm] | signal [OD405 nm] [15] [OD405 nm] | signal [OD405 nm] [16] [OD405 nm] | signal [OD405 nm] [17] [OD405 nm] | signal [OD405 nm] [18] [OD405 nm] | signal [OD405 nm] [19] [OD405 nm] | signal [OD405 nm] [20] [OD405 nm]
1 | B1 | 2.77 | 0.301 | 0.175 | 0.085 | 0.15 | 0.054 | 0.05 | 1.6 | 2.23 | 0.987 | 0.573 | 0.314 | 0.107 | 0.074 |  |  |  |  |  | 
2 | B2 |  |  |  |  |  |  |  |  |  |  |  |  |  |  | 0.253 | 2.17 | 1.44 | 0.847 | 0.096 | 0.072
